Changes are numbered by the printed parent chain. In names and notes the source's numbering stands.
Legend:
HeLa cells = assay: Parkin-induced mitophagy, loss of mitochondria by immunocytochemistry; type: cell-based; details: YFP-Parkin HeLa cells, 10 μM CCCP+10 mM 3-methyladenine or +100 nM Bafilomycin, 24 hours
Procedure: Cultured cells seeded in borosilicate chamber slides (Thermo Fisher Scientific) were transfected or cotransfected with YFP-Parkin, ECFP-Parkin, mCherry-Parkin, DsRed-Mito (Clontech Laboratories, Inc.), pcDNA3.1 (Invitrogen), vMIA, and/or Drp1K38A constructs using Fugene 6 (Roche). Parkin-myc was a gift from M. Cookson (National Institutes of Health, Bethesda, Md.). Cells were fixed 12-24 hours after transfection with 4% paraformaldehyde in PBS. Cells were stained with following primary antibodies: mouse monoclonal cytochrome c (BD), rabbit polyclonal Tom20 (Santa Cruz Biotechnology, Inc.), mouse monoclonal Parkin PRK8 (Santa Cruz Biotechnology, Inc.), rabbit polyclonal PMP70 (Invitrogen), and/or mouse monoclonal TRAP1 (Abcam); and with the following secondary antibodies: mouse and/or rabbit Alexa 488, 594, and 633 (Invitrogen). For assessment of mitochondrial membrane potential, cells were pulsed with 50 nM Mito-Tracker red (Invitrogen) for 15 min, washed, and incubated for an additional 10 minutes before fixation or imaging. For assessment of cell metabolic potential, cell nuclei were stained with Hoechst 33342 (Invitrogen).
(§1) Confocal microscopy of fixed samples, scoring of Parkin recruitment and Parkininduced mitophagy, and live cell imaging were performed as described previously (Narendra (2008) J Cell Biol 183: 795-803). Experiments in Mfn1/2 null cells were performed as described previously with minor modifications.
as §1, with “Parkin-induced” for “Parkininduced”, “imageing” for “imaging”, “modifications described in the supplemental methods (Narendra (2008) J Cell Biol 183: 795-803).” for “modifications.”

PINK1 = PINK1 accumulation by fractionation and immunoblotting; type: cell-based; details: HeLa cells, mitochondrial membrane fraction; 10 μM CCCP or 1 μM valinomycin
Source text: (§2) For PINK1 experiments, cells were fractionated using the Mitochondria Isolation Kit (Pierce), according to manufacturer's specifications with slight modifications. To isolate integral membrane proteins, membrane fractions obtained as above were carbonate extracted with 0.1M Na2CO3 fresh cold buffer and membranes were pelleted, as described in the supplemental methods. For Parkin experiments, cells were fractionated as described previously, with minor modifications described in the supplemental methods (Narendra (2008) J Cell Biol 183: 795-803). The following primary antibodies were used: anti-Parkin (PRK8) monoclonal (Santa Cruz), anti-Tom20 polyclonal (Santa Cruz), anti-cytochrome c monoclonal (BD Biosciences), anti-PINK1 polyclonal (Novus Biologicals), anti-VDAC monoclonal (Calbiochem), anti-GAPDH polyclonal (Sigma-Aldrich), anti-Tubulin monoclonal (Sigma-Aldrich), anti-V5 monoclonal (Invitrogen), anti-GFP polyclonal (Invitrogen).
as §2, with “with slight modifications described in the supplemental methods. To isolate” for “with slight modifications. To isolate”, “minor modifications detailed in the” for “minor modifications described in the”, “supplemental methods (Narendra (2008) J Cell Biol 183: 795-803). The protease protection assay was performed as described previously (Chen (2005) J Biol Chem 280: 26185-26192). Cells were fixed and immunostained as described previously (Narendra (2008)” for “supplemental methods (Narendra (2008)”, “anti-GFP polyclonal (Invitrogen), anti-TIM23 monoclonal (BD Biosciences), and anti-Hsp60 monoclonal (Stressgen).” for “anti-GFP polyclonal (Invitrogen).”

[1] = tested on: PINK1+/+ or PINK1−/− MEFs; assay: YFP-Parkin recruitment to mitochondria in MEFs; type: cell-based, mouse; details: 20 μM CCCP, 3 hours; for reconstitution of YFP-Parkin recruitment: PINK1−/− primary MEFs co-transfected with construct
Source text: HeLa YFP-Parkin, PINK1+/+ SV40 transformed MEFs cells, PINK1−/− SV40 transformed MEF, M17 neuroblastoma control shRNA, M17 neuroblastoma PINK1, and Mfn1/2−/− MEF cell lines have been described previously (Narendra (2008) J Cell Biol 183: 795-803). PINK1+/+ and PINK1−/− primary MEFs were isolated from embryos using a standard protocol (Gautier (2008) Proc Natl Acad Sci USA 105: 11364-11369). Parkin+/+ and Parkin−/− transformed MEFs were created by isolation of primary cells from embryos of B6.129S4-Park2tm1Shn/J mice (Jackson Labs), using a standard protocol (Gautier (2008) Proc Natl Acad Sci USA 105: 11364-11369), followed by retroviral transduction of SV40 (Applied Biological Materials, Inc.). YFP-Parkin, YFPParkin mutants, mCherry-Parkin, PINK1-YFP, PINK1 KD-YFP, PINK1 Δ1-110-YFP, and Opa3-PINK1 Δ1-110-YFP are in C1 or N1 Clontech vectors. PINK1WT-V5, PINK1 KD-V5, and PINK1 Δ1-156-V5 are in pDest40 vector (Invitrogen). PINK1 patient mutations are in pLenti-V5 vector (Invitrogen). PINK1-myc is in a pCMBTNT vector (Promega).
as §1
HeLa YFP-Parkin, E18 Rat cortical neurons, PINK1^+/+ SV40 transformed MEFs cells, PINK1^−/− SV40 transformed MEF, M17 neuroblastoma control shRNA, M17 neuroblastoma PINK1, Mfn1/2^−/− MEF, and Parl^−/− MEF cell lines have been described previously (Narendra (2008) J Cell Biol 183: 795-803). PINK1^+/+ and PINK1^−/− primary MEFs were isolated from embryos using a standard protocol (Gautier (2008) Proc Natl Acad Sci USA 105: 11364-11369). Parkin^+/+ and Parkin^−/− transformed MEFs were created by isolation of primary cells from embryos of B6.129S4-Park2^tm1Shn/J mice (Jackson Labs), using a standard protocol (Gautier (2008) Proc Natl Acad Sci USA 105: 11364-11369), followed by retroviral transduction of SV40 (Applied Biological Materials, Inc.). YFP-Parkin, YFP-Parkin mutants, mCherry-Parkin, PINK1-YFP, PINK1 KD-YFP, PINK1 Δ1-110-YFP, and Opa3-PINK1 Δ1-110-YFP are in C1 or N1 Clontech vectors. PINK1WT-V5, PINK1 KD-V5, and PINK1 Δ1-156-V5 are in pDest40 vector (Invitrogen). PINK1 patient mutations are in the pLenti-V5 vector (Invitrogen). PINK1-myc is in a pCMBTNT vector (Promega). The PARL shRNA construct targeting (5′ […] 3′) is in the pSuper-GFP vector. To make FRB-PINK1 (111-581)-YFP and Tom20 (1-33)-FKBP, PCR fragments containing PINK1 (111-581)-YFP and Tom20 (1-33) were cloned into the BamHI site of the pC4-RHE vector and the EcoRI and XbaI sites of pC4M-F2E vectors, respectively (ARIAD Pharmaceuticals). The rapamycin analogue AP21967 was obtained from ARIAD Pharmaceuticals. The PARL shRNA construct targeting (5′ […] 3′) is in the pSuper-GFP vector (OligoEngine).
as §1, with “Parkin-induced” for “Parkininduced”, “imageing” for “imaging”, “modifications described in the supplemental methods (Narendra (2008) J Cell Biol 183: 795-803).” for “modifications.”

CO/C1=C\C(C)=C\[C@@H](C)[C@@H](O)[C@@H](C)C/C(C)=C/C=C/[C@H](OC)[C@@H]([C@@H](C)[C@@H](O)[C@H](C)[C@@]2(O)C[C@@H](O)[C@H](C)[C@@H](C(C)C)O2)OC1=O [bafilomycin, reference compound]
effect on Parkin-induced mitophagy (HeLa cells): blocked

CC(C)[C@@H]1NC(=O)[C@H](C)OC(=O)[C@@H](C(C)C)NC(=O)[C@@H](C(C)C)OC(=O)[C@H](C(C)C)NC(=O)[C@H](C)OC(=O)[C@@H](C(C)C)NC(=O)[C@@H](C(C)C)OC(=O)[C@H](C(C)C)NC(=O)[C@H](C)OC(=O)[C@@H](C(C)C)NC(=O)[C@@H](C(C)C)OC1=O [valinomycin]
endogenous full length PINK1 (˜63 kDa) level after depolarization (PINK1): increased

Cn1cnc(N)c2ncnc1-2 [3-methyl adenine, reference compound]
effect on Parkin-induced mitophagy (HeLa cells): blocked

B1: L347P: patient mutant of PINK1, V5-tagged (protein, UniProt Q9BXM7 78-581, looked up, variant L347P)
Serine/threonine-protein …: AARLQRQFVVRAWGCAGPCGRAVFLAFGLGLGLIEEKQAESRRAVSACQEIQAIFTQKSKPGPDPLDTRRLQGFRLEEYLIGQSIGKGCSAAVYEATMPTLPQNLEVTKSTGLLPGRGPGTSAPGEGQERAPGAPAFPLAIKMMWNISAGSSSEAILNTMSQELVPASRVALAGEYGAVTYRKSKRGPKQLAPHPNIIRVLRAFTSSVPLLPGALVDYPDVLPSRLHPEGLGHGRTLFLVMKNYPCTLRQYLCVNTPSPRLAAMMLLQLPEGVDHLVQQGIAHRDLKSDNILVELDPDGCPWLVIADFGCCLADESIGLQLPFSSWYVDRGGNGCLMAPEVSTARPGPRAVIDYSKADAWAVGAIAYEIFGLVNPFYGQGKAHLESRSYQEAQLPALPESVPPDVRQLVRALLQREASKRPSARVAANVLHLSLWGEHILALKNLKLDKMVGWLLQQSAATLLANRLTEKCCVETKMKMLFLANLECETLCQAALLLCSWRAAL
modifications: V5 tag
notes: patient mutant of PINK1, V5-tagged
reconstitution of YFP-Parkin recruitment [1]: failed to reconstitute

B2: A168P: patient mutant of PINK1, V5-tagged (protein, UniProt Q9BXM7 78-581, looked up, variant A168P)
Serine/threonine-protein …: B1 Serine/threonine-protein … with A91P, P270L
modifications: V5 tag
notes: as for B1
reconstitution of YFP-Parkin recruitment [1]: failed to reconstitute

B3: H271Q: patient mutant of PINK1, V5-tagged (protein, UniProt Q9BXM7 78-581, looked up, variant H271Q)
Serine/threonine-protein …: B1 Serine/threonine-protein … with H194Q, P270L
modifications: V5 tag
notes: as for B1
reconstitution of YFP-Parkin recruitment [1]: failed to reconstitute

B4: G411S: PINK1 polymorphism, V5-tagged (protein, UniProt Q9BXM7 78-581, looked up, variant G411S)
Serine/threonine-protein …: B1 Serine/threonine-protein … with P270L, G334S
modifications: V5 tag
notes: PINK1 polymorphism, V5-tagged
YFP-Parkin recruited to mitochondria, % of cells ([1]; PINK1−/− primary MEFs expressing the PINK1 construct): 74.2±5.4%

From patent US20120277286A1, “COMPOSITIONS AND METHODS FOR THE TREATMENT OR PREVENTION OF MITOCHONDRIAL DISEASES” (The Government of the USA, as represented by the Secretary, …, priority 2009, published 2012)
